{
  "source": "patent US20260027190A1",
  "about": "“OVARIAN TUMOR DEUBIQUITINASE OXIDATION AND USES THEREOF” (The University of Vermont and State Agricultural College, priority 2022, published 2026)",
  "molecules": {"B1": {"name": "GLRX: recombinant wild-type glutaredoxin protein, deglutathionylating enzyme, administered directly to cells (protein, UniProt P35754 2-106, looked up)", "Glutaredoxin-1": "AQEFVNCKIQPGKVVVFIKPTCPYCRRAQEILSQLPIKQGLLEFVDITATNHTNEIQDYLQQLTGARTVPRVFIGKDCIGGCSDLVSLQQSGELLTRLKQIGALQ"}},
  "assay_type_in_all_cases": "cell-based",
  "key": {"[1]": {"system": "mouse tracheal epithelial (MTE) cells", "assay": "Total GSH measurement (DTNB assay) in MTE cells", "conditions": "direct administration of recombinant protein to MTE cells", "description": "It has been previously shown that the pleotropic cytokine IL1B augments glycolysis in lung epithelial cells, and that interleukin 1B (IL1B) is linked to oxidative stress. The pentose phosphate pathway, an offshoot of glycolysis, regulates the redox environment by providing nicotinamide adenine dinucleotide phosphate (NADPH) reducing equivalents necessary for glutathione (GSH) homeostasis. The effects of GSH in response to IL1B were examined. Briefly, GSH was measured using a 5,5′-dithio-bis (2-nitrobenzoic acid) (DTNB) assay in both control and IL1B-stimulated mouse tracheal epithelial cells. […] Statistics on the left panel represent the total GSH levels, without differentiating between labeled and unlabeled portions of GSH (P-value*<0.05, ****<0.0001).\nA regulator of GSH homeostasis is the transporter system xC-, which exports glutamate and concomitantly imports cystine in a 1:1 ratio. Once inside the cells, cystine is reduced to two cysteines, the latter being the rate limiting amino acid required for GSH synthesis. These relationships were examined further. […] To address whether IL1B-induced increases in GSH are system xC- dependent, two system xC- inhibitors, erastin (Er) and sulfasalazine (SAS) were used. Cells were pretreated for one hour, followed by IL1B treatment for 24 hours. Then, GSH levels were measured in cells exposed to increasing doses of Er or SAS (FIG. 2G). Extracellular glutamate levels in cell culture supernatant of cells pretreated with 0.5 micromolar Er (left) or 100 micromolar SAS (right) for 1 hour before IL1B stimulation were also measured (FIG. 2H). […] System xC- inhibition is known to induce ferroptosis, an iron-dependent mode of cell death characterized by increased lipid peroxidation. However, no changes in cell viability using erastin (5 micromolar) or sulfasalazine (500 micromolar) were detected (FIG. 2I; P-value*<0.05, ***<0.001, ****<0.0001).\nPrimary mouse tracheal epithelial (MTE) cells were isolated from C57BL/6NJ wild-type or C57BL6/NJ mice lacking Glrx1 gene and cultured. Cells were grown on collagen coated plastic plates or transwell inserts with media change every 2 days until confluency. For interleukin 1B (IL1B) treatment: cells were incubated in plain Dulbecco's Modified Eagle Medium (DMEM): F12 media containing 6 mM glucose and 2 mM glutamine overnight followed by stimulation with 10 ng/ml IL1B or 0.1% bovine serum albumin (BSA) in phosphate buffered saline (PBS) (vehicle control) for 24 hours. Treatment with crastin, sulfasalazine or BSO occurred 1 hour before IL1B stimulation. Media and cells were collected for further analysis. For growing H522 and OTUB1-CRISPR-H522 cells: Roswell Park Memorial Institute (RPMI) media supplemented with 10% fetal bovine serum (FBS) and 1% pen/strep was used to grow the cells. Plasmid over-expression and OTUB1 knock-down experiments were done when cells were 60-70% confluent.\nCell lysates were prepared in 100 mM potassium phosphate buffer containing 0.6% sulfosalicylic acid, 1 mM ethylenediaminetetraacetic acid (EDTA) and 0.01% triton-x-100. To measure total glutathione (GSH), equal amounts of proteins were incubated with 3 micromolar 5,5′-dithio-bis (2-nitrobenzoic acid) (DTNB) reagent and 2.25 microgram/ml glutathione reductase followed by the addition of 240 micromolar Nicotinamide adenine dinucleotide phosphate (NADPH). Kinetic absorbance was measured every minute at 412 nm for 20 minutes. […]"}, "KRAS-mutant A549 cells": {"system": "KRAS-mutant A549 cells", "assay": "A549 cell viability / cisplatin-induced killing"}, "H522 LUAD cells": {"system": "H522 LUAD cells", "assay": "GSH levels in H522 LUAD cells", "conditions": "administration of GLRX to H522 LUAD cells", "description": "Cell lysates were prepared in 100 mM potassium phosphate buffer containing 0.6% sulfosalicylic acid, 1 mM ethylenediaminetetraacetic acid (EDTA) and 0.01% triton-x-100. To measure total glutathione (GSH), equal amounts of proteins were incubated with 3 micromolar 5,5′-dithio-bis (2-nitrobenzoic acid) (DTNB) reagent and 2.25 microgram/ml glutathione reductase followed by the addition of 240 micromolar Nicotinamide adenine dinucleotide phosphate (NADPH). Kinetic absorbance was measured every minute at 412 nm for 20 minutes. For protein S-glutathionylation (PSSG) measurement, 400 micrograms of protein was acetone precipitated and washed thoroughly to remove any free GSH. Pellets were reconstituted in 100 mM potassium phosphate buffer with 1 mM EDTA. Samples were then incubated with 1 mM sodium borohydride (NaBH4) or water (negative control) for 1 hour at room temperature. 10% metaphosphoric acid was added to all the samples, including controls, and left on ice for 10 minutes. Samples were centrifuged at 1000×g for 15 minutes and 20 microliters were loaded in a 96 well plate to measure PSSG using, 5′-dithio-bis-(2-nitrobenzoic acid) (DTNB) recycling enzyme method as stated above."}},
  "data": [
    {"molecule": "B1", "values": [
      {"measurement": "GSH levels", "setting": "[1]", "result": "decreased"},
      {"measurement": "viability", "setting": "KRAS-mutant A549 cells; GLRX alone", "result": "did not decrease"},
      {"measurement": "cisplatin-induced killing", "setting": "KRAS-mutant A549 cells; GLRX with cisplatin", "result": "promoted"},
      {"measurement": "GSH levels", "setting": "H522 LUAD cells", "result": "decreased"}
    ]}
  ]
}
